From patent publication EP4692114A1, “CALCITONIN ANALOGUE, AND DERIVATIVE THEREOF AND USE THEREOF” (Hangzhou Sciwind Biosciences Co., Ltd., priority 2023, dated 2024)
*1 amine or outer side, *2 acyl side, *3 side chain or, on linkers, in order; H or OH if unused. The star is where a group is joined. C22 diacid = O=C(O)CCCCCCCCCCCCCCCCCCCCC(=O)*; C20 diacid = O=C(O)CCCCCCCCCCCCCCCCCCC(=O)*; γGlu = O=C(O)[C@H](CCC(=O)[*:2])N[*:1]; AEEA = NCCOCCOCC(=O)O

T1: human amylin receptor (AMY3) on CHO-K1/Gal5/AMY3 cells (human, UniProt P30988 25-474; O60896 24-148)
T1 sequence (looked up) 1: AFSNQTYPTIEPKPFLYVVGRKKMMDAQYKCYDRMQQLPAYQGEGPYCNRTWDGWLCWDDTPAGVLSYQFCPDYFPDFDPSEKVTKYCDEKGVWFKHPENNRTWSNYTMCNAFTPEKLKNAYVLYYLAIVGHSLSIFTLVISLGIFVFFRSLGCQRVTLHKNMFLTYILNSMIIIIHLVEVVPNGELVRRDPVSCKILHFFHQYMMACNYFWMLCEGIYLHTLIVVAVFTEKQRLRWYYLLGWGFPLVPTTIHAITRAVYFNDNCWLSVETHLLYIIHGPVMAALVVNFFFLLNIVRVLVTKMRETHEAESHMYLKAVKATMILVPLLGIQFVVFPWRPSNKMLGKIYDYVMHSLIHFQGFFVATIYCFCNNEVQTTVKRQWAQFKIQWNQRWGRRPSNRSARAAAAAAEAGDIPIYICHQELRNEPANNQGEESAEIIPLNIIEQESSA
T1 sequence (looked up) 2: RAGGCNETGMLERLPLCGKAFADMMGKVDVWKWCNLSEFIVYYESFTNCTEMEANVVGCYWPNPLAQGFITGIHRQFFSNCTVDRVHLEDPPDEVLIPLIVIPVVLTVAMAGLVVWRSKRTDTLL


These binders were tested against T1, human amylin receptor (AMY3) on … (assay: cell-based or functional assay).

Row | EC50/nM, CRE-luciferase in amylin receptor/CRE-luc CHO cells [nM] | Binder
1 | 0.017 | {C22 diacid-γGlu}-ASQLSTAVLGRLSEELHRLQDYPRTDVGSGSP-NH2 (SMILES CC(C)C[C@H](NC(=O)[C@H](CCCNC(=N)N)NC(=O)CNC(=O)[C@H](CC(C)C)NC(=O)[C@@H](NC(=O)[C@H](C)NC(=O)[C@@H](NC(=O)[C@H](CO)NC(=O)[C@H](CC(C)C)NC(=O)[C@H](CCC(N)=O)NC(=O)[C@H](CO)NC(=O)[C@H](C)NC(=O)CC[C@H](NC(=O)CCCCCCCCCCCCCCCCCCCCC(=O)O)C(=O)O)[C@@H](C)O)C(C)C)C(=O)N[C@@H](CO)C(=O)N[C@@H](CCC(=O)O)C(=O)N[C@@H](CCC(=O)O)C(=O)N[C@@H](CC(C)C)C(=O)N[C@@H](Cc1c[nH]cn1)C(=O)N[C@@H](CCCNC(=N)N)C(=O)N[C@@H](CC(C)C)C(=O)N[C@@H](CCC(N)=O)C(=O)N[C@@H](CC(=O)O)C(=O)N[C@@H](Cc1ccc(O)cc1)C(=O)N1CCC[C@H]1C(=O)N[C@@H](CCCNC(=N)N)C(=O)N[C@H](C(=O)N[C@@H](CC(=O)O)C(=O)N[C@H](C(=O)NCC(=O)N[C@@H](CO)C(=O)NCC(=O)N[C@@H](CO)C(=O)N1CCC[C@H]1C(N)=O)C(C)C)[C@@H](C)O) [calcitonin derivative M65]
2 | 0.017 | {C20 diacid-γGlu}-ASQLSTAVLGRLSDELHRLQDLPRTDVGSGSP-NH2 (SMILES CC(C)C[C@H](NC(=O)[C@H](CCCNC(=N)N)NC(=O)CNC(=O)[C@H](CC(C)C)NC(=O)[C@@H](NC(=O)[C@H](C)NC(=O)[C@@H](NC(=O)[C@H](CO)NC(=O)[C@H](CC(C)C)NC(=O)[C@H](CCC(N)=O)NC(=O)[C@H](CO)NC(=O)[C@H](C)NC(=O)CC[C@H](NC(=O)CCCCCCCCCCCCCCCCCCC(=O)O)C(=O)O)[C@@H](C)O)C(C)C)C(=O)N[C@@H](CO)C(=O)N[C@@H](CC(=O)O)C(=O)N[C@@H](CCC(=O)O)C(=O)N[C@@H](CC(C)C)C(=O)N[C@@H](Cc1c[nH]cn1)C(=O)N[C@@H](CCCNC(=N)N)C(=O)N[C@@H](CC(C)C)C(=O)N[C@@H](CCC(N)=O)C(=O)N[C@@H](CC(=O)O)C(=O)N[C@@H](CC(C)C)C(=O)N1CCC[C@H]1C(=O)N[C@@H](CCCNC(=N)N)C(=O)N[C@H](C(=O)N[C@@H](CC(=O)O)C(=O)N[C@H](C(=O)NCC(=O)N[C@@H](CO)C(=O)NCC(=O)N[C@@H](CO)C(=O)N1CCC[C@H]1C(N)=O)C(C)C)[C@@H](C)O) [calcitonin derivative M50]
3 | 0.017 | {C22 diacid-γGlu-AEEA-AEEA}-ASQLSTAVLGRLSEELHRLQDYPRTDVGSGSP-NH2 (SMILES CC(C)C[C@H](NC(=O)[C@H](CCCNC(=N)N)NC(=O)CNC(=O)[C@H](CC(C)C)NC(=O)[C@@H](NC(=O)[C@H](C)NC(=O)[C@@H](NC(=O)[C@H](CO)NC(=O)[C@H](CC(C)C)NC(=O)[C@H](CCC(N)=O)NC(=O)[C@H](CO)NC(=O)[C@H](C)NC(=O)COCCOCCNC(=O)COCCOCCNC(=O)CC[C@H](NC(=O)CCCCCCCCCCCCCCCCCCCCC(=O)O)C(=O)O)[C@@H](C)O)C(C)C)C(=O)N[C@@H](CO)C(=O)N[C@@H](CCC(=O)O)C(=O)N[C@@H](CCC(=O)O)C(=O)N[C@@H](CC(C)C)C(=O)N[C@@H](Cc1c[nH]cn1)C(=O)N[C@@H](CCCNC(=N)N)C(=O)N[C@@H](CC(C)C)C(=O)N[C@@H](CCC(N)=O)C(=O)N[C@@H](CC(=O)O)C(=O)N[C@@H](Cc1ccc(O)cc1)C(=O)N1CCC[C@H]1C(=O)N[C@@H](CCCNC(=N)N)C(=O)N[C@H](C(=O)N[C@@H](CC(=O)O)C(=O)N[C@H](C(=O)NCC(=O)N[C@@H](CO)C(=O)NCC(=O)N[C@@H](CO)C(=O)N1CCC[C@H]1C(N)=O)C(C)C)[C@@H](C)O) [calcitonin derivative M66]

Further lines, the binder ahead of its results:

Row | Binder | EC50/nM, CRE-luciferase in amylin receptor/CRE-luc CHO cells [nM]
4 | {C20 diacid-γGlu}-ASQLSTAVLGRLSQELHRLQDYPRTQSGSGSP-NH2 (SMILES CC(C)C[C@H](NC(=O)[C@H](CCCNC(=N)N)NC(=O)CNC(=O)[C@H](CC(C)C)NC(=O)[C@@H](NC(=O)[C@H](C)NC(=O)[C@@H](NC(=O)[C@H](CO)NC(=O)[C@H](CC(C)C)NC(=O)[C@H](CCC(N)=O)NC(=O)[C@H](CO)NC(=O)[C@H](C)NC(=O)CC[C@H](NC(=O)CCCCCCCCCCCCCCCCCCC(=O)O)C(=O)O)[C@@H](C)O)C(C)C)C(=O)N[C@@H](CO)C(=O)N[C@@H](CCC(N)=O)C(=O)N[C@@H](CCC(=O)O)C(=O)N[C@@H](CC(C)C)C(=O)N[C@@H](Cc1c[nH]cn1)C(=O)N[C@@H](CCCNC(=N)N)C(=O)N[C@@H](CC(C)C)C(=O)N[C@@H](CCC(N)=O)C(=O)N[C@@H](CC(=O)O)C(=O)N[C@@H](Cc1ccc(O)cc1)C(=O)N1CCC[C@H]1C(=O)N[C@@H](CCCNC(=N)N)C(=O)N[C@H](C(=O)N[C@@H](CCC(N)=O)C(=O)N[C@@H](CO)C(=O)NCC(=O)N[C@@H](CO)C(=O)NCC(=O)N[C@@H](CO)C(=O)N1CCC[C@H]1C(N)=O)[C@@H](C)O) [calcitonin derivative M17] | 0.042
5 | {C20 diacid-γGlu}-ASELSTAVLGRLSEELHRLEDYPRTDVGSGSP-NH2 (SMILES CC(C)C[C@H](NC(=O)[C@H](CCCNC(=N)N)NC(=O)CNC(=O)[C@H](CC(C)C)NC(=O)[C@@H](NC(=O)[C@H](C)NC(=O)[C@@H](NC(=O)[C@H](CO)NC(=O)[C@H](CC(C)C)NC(=O)[C@H](CCC(=O)O)NC(=O)[C@H](CO)NC(=O)[C@H](C)NC(=O)CC[C@H](NC(=O)CCCCCCCCCCCCCCCCCCC(=O)O)C(=O)O)[C@@H](C)O)C(C)C)C(=O)N[C@@H](CO)C(=O)N[C@@H](CCC(=O)O)C(=O)N[C@@H](CCC(=O)O)C(=O)N[C@@H](CC(C)C)C(=O)N[C@@H](Cc1c[nH]cn1)C(=O)N[C@@H](CCCNC(=N)N)C(=O)N[C@@H](CC(C)C)C(=O)N[C@@H](CCC(=O)O)C(=O)N[C@@H](CC(=O)O)C(=O)N[C@@H](Cc1ccc(O)cc1)C(=O)N1CCC[C@H]1C(=O)N[C@@H](CCCNC(=N)N)C(=O)N[C@H](C(=O)N[C@@H](CC(=O)O)C(=O)N[C@H](C(=O)NCC(=O)N[C@@H](CO)C(=O)NCC(=O)N[C@@H](CO)C(=O)N1CCC[C@H]1C(N)=O)C(C)C)[C@@H](C)O) [calcitonin derivative M34] | 0.058
6 | {C20 diacid-γGlu}-RSQLSTEVLGRLSQELHRLQDYPRTDVGSGSP-NH2 (SMILES CC(C)C[C@H](NC(=O)[C@H](CCCNC(=N)N)NC(=O)CNC(=O)[C@H](CC(C)C)NC(=O)[C@@H](NC(=O)[C@H](CCC(=O)O)NC(=O)[C@@H](NC(=O)[C@H](CO)NC(=O)[C@H](CC(C)C)NC(=O)[C@H](CCC(N)=O)NC(=O)[C@H](CO)NC(=O)[C@H](CCCNC(=N)N)NC(=O)CC[C@H](NC(=O)CCCCCCCCCCCCCCCCCCC(=O)O)C(=O)O)[C@@H](C)O)C(C)C)C(=O)N[C@@H](CO)C(=O)N[C@@H](CCC(N)=O)C(=O)N[C@@H](CCC(=O)O)C(=O)N[C@@H](CC(C)C)C(=O)N[C@@H](Cc1c[nH]cn1)C(=O)N[C@@H](CCCNC(=N)N)C(=O)N[C@@H](CC(C)C)C(=O)N[C@@H](CCC(N)=O)C(=O)N[C@@H](CC(=O)O)C(=O)N[C@@H](Cc1ccc(O)cc1)C(=O)N1CCC[C@H]1C(=O)N[C@@H](CCCNC(=N)N)C(=O)N[C@H](C(=O)N[C@@H](CC(=O)O)C(=O)N[C@H](C(=O)NCC(=O)N[C@@H](CO)C(=O)NCC(=O)N[C@@H](CO)C(=O)N1CCC[C@H]1C(N)=O)C(C)C)[C@@H](C)O) [calcitonin derivative M32] | 0.03
7 | {C20 diacid-γGlu}-ASQLSTAVLGRLSQELHRLQDFPRTDVGSGSP-NH2 (SMILES CC(C)C[C@H](NC(=O)[C@H](CCCNC(=N)N)NC(=O)CNC(=O)[C@H](CC(C)C)NC(=O)[C@@H](NC(=O)[C@H](C)NC(=O)[C@@H](NC(=O)[C@H](CO)NC(=O)[C@H](CC(C)C)NC(=O)[C@H](CCC(N)=O)NC(=O)[C@H](CO)NC(=O)[C@H](C)NC(=O)CC[C@H](NC(=O)CCCCCCCCCCCCCCCCCCC(=O)O)C(=O)O)[C@@H](C)O)C(C)C)C(=O)N[C@@H](CO)C(=O)N[C@@H](CCC(N)=O)C(=O)N[C@@H](CCC(=O)O)C(=O)N[C@@H](CC(C)C)C(=O)N[C@@H](Cc1c[nH]cn1)C(=O)N[C@@H](CCCNC(=N)N)C(=O)N[C@@H](CC(C)C)C(=O)N[C@@H](CCC(N)=O)C(=O)N[C@@H](CC(=O)O)C(=O)N[C@@H](Cc1ccccc1)C(=O)N1CCC[C@H]1C(=O)N[C@@H](CCCNC(=N)N)C(=O)N[C@H](C(=O)N[C@@H](CC(=O)O)C(=O)N[C@H](C(=O)NCC(=O)N[C@@H](CO)C(=O)NCC(=O)N[C@@H](CO)C(=O)N1CCC[C@H]1C(N)=O)C(C)C)[C@@H](C)O) [calcitonin derivative M49] | 0.075
